Laboratory results from patent US5942602.

Experiments:
[1] = molecular target: EGFRvIII (human) (UniProt P00533)
[2] = molecular target: human full-length EGF receptor (human) (UniProt P00533)
[3] = molecular target: EGFRvIII (human) (UniProt P00533); remark: listed apart in the source
[4] = molecular target: human full-length EGF receptor (human) (UniProt P00533); remark: listed apart in the source
[5] = molecular target: human full-length EGF receptor (human) (UniProt P00533); remark: listed apart in the source

Substance | IC50 of cell killing, DH-EΔ801-5 cells, 40 h [1] | IC50 of cell killing, SKBR3 cells, 40 h [2] | IC50 of cell killing, DH-EΔ801-P cells, 40 h [3] | IC50 of cell killing, DH-EGFR-E cells, 40 h [4] | competition of TGFα-ETA (100 ng/ml) cytotoxicity by 10 µg/ml scFv, 40 h; MDA-MB468 cells (also A431 and SKBR3) (% cell killing) [5]
TGFα-ETA (from UniProt P01135) | > 1 µg/mL | 0.09 µg/mL | 0.7 µg/mL | 0.042 µg/mL | –
scFv(225) | – | – | – | – | 63
